Source: patent US20190127444A1 (published 2019)

How the values were obtained:
[1] = molecular target: SdgB glycosylated SdrC4 protein (UniProt O86487 51-910); assay: SPR
[2] = molecular target: LukE, recombinant polyhistidine-tagged variant; assay: SPR

B1: mAb 5133 PRASA A6 HC-L4-E (Table 1 Construct 15) (bispecific antibody)
heavy: EVQLVETGGGLVKPGGSLRLSCSASRFSFRDYYMTWIRQAPGKGPEWVSHISGSGSTIYYADSVRGRFTISRDNAKSSLYLQMDSLQADDTAVYYCARGGRATSYYWVHWGPGTLVTVSSASTKGPSVFPLAPSSKSTSGGTAALGCLVKDYFPEPVTVSWNSGALTSGVHTFPAVLQSSGLYSLSSVVTVPSSSLGTQTYICNVNHKPSNTKVDKKVEPKSCDKTHTCPPCPAPPVAGPDVFLFPPKPKDTLMISRTPEVTCVVVDVSHEDPEVKFNWYVDGVEVHNAKTKPREEQYNSTYRVVSVLTVLHQDWLNGKEYKCKVSNAALPAPIAKTISKAKGQPREPQVYTLPPSRDELTKNQVSLTCLVKGFYPSDIAVEWESNGQPENNYKTTPPVLDSDGSFFLYSKLTVDKSRWQQGNVFSCSVMHEALHNRFTQKSLSLSPGKGGGGSGGGGSGGGGSGGGGSMLPAPKNLVVSRVTEDSARLSWTAPDAAFDSFHIEYAEPWVWGEAIVLTVPGSERSYDLTGLKPGTEYVVFIGGVKGGHNSTPLSAIFTT
light: EIVLTQSPATLSLSPGERATLSCRASQSVSGYLGWYQQKPGQAPRLLIYGASSRATGIPDRFSGSGSGTDFTLTISRLEPEDFAVYYCQQYGSSPLTFGGGTKLEIKRTVAAPSVFIFPPSDEQLKSGTASVVCLLNNFYPREAKVQWKVDNALQSGNSQESVTEQDSKDSTYSLSSTLTLSKADYEKHKVYACEVTHQGLSSPVTKSFNRGEC
Q: With B1 as the binder, how does the Kd [1] read?
A: 0.63 nM

Q: What about the Kd [2] of the same binder?
A: 0.88 nM

B2: mAb 5133 PRASA A6 HC-L4-E-L4-AB (Table 1 Construct 11) (bispecific antibody)
heavy: EVQLVETGGGLVKPGGSLRLSCSASRFSFRDYYMTWIRQAPGKGPEWVSHISGSGSTIYYADSVRGRFTISRDNAKSSLYLQMDSLQADDTAVYYCARGGRATSYYWVHWGPGTLVTVSSASTKGPSVFPLAPSSKSTSGGTAALGCLVKDYFPEPVTVSWNSGALTSGVHTFPAVLQSSGLYSLSSVVTVPSSSLGTQTYICNVNHKPSNTKVDKKVEPKSCDKTHTCPPCPAPPVAGPDVFLFPPKPKDTLMISRTPEVTCVVVDVSHEDPEVKFNWYVDGVEVHNAKTKPREEQYNSTYRVVSVLTVLHQDWLNGKEYKCKVSNAALPAPIAKTISKAKGQPREPQVYTLPPSRDELTKNQVSLTCLVKGFYPSDIAVEWESNGQPENNYKTTPPVLDSDGSFFLYSKLTVDKSRWQQGNVFSCSVMHEALHNRFTQKSLSLSPGKGGGGSGGGGSGGGGSGGGGSMLPAPKNLVVSRVTEDSARLSWTAPDAAFDSFHIEYAEPWVWGEAIVLTVPGSERSYDLTGLKPGTEYVVFIGGVKGGHNSTPLSAIFTTGGGGSGGGGSGGGGSGGGGSMLPAPKNLVVSRVTEDSARLSWTAPDAAFDSFWITYEEKFYRGEAIVLTVPGSERSYDLTGLKPGTEYKVWIVGVKGGQGSWPLSAIFTT
light: B1 light
Q: What does the source list for B2?
A: Kd [1]: 0.91 nM; Kd [2]: 1.01 nM
